This note sets out measurements from patent US20170260257A1.

The target of this assay is BSA (UniProt P02769). In words: sandwich ELISA: plate coated with the antibody, BSA as negative sample, detection with sheep anti-HBsAg/peroxidase.

“And” between values parts separate entries of the source, which are not always exact repeats. Equal entries are not always repeated.

Sequence of BSA (P02769 25-607 limits assumed): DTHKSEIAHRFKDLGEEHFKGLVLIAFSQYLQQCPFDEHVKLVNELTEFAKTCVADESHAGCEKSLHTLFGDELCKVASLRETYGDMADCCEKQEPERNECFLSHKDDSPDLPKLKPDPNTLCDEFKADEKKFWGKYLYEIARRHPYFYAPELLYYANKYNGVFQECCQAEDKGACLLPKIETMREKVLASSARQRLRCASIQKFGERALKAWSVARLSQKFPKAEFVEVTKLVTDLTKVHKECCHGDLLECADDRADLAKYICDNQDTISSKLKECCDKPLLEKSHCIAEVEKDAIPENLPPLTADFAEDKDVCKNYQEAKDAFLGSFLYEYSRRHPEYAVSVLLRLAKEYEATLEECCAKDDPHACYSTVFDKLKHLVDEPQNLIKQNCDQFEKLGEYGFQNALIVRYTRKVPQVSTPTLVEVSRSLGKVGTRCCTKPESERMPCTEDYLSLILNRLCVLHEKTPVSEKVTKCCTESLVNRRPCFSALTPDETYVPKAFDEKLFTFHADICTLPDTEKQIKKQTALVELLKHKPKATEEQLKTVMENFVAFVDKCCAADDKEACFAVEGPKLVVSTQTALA

B1: the antibody of the present invention comprising a heavy-chain variable region having amino acid sequence of SEQ ID NO: 2 and a light-chain variable region … (antibody, V domains shown)
VH: EVQLVESGGGLVKPGGSLRLSCSASGFSLTKYKMTWVRQAPGKGLEWVSSISSTSRDIDYADSVKGRFTISRDNAKNSLFLQMSSLRVDDTAVYYCTRDGWLWGWDVRSNYYYNALDVWGQGTTVTVSS
VL: DIVVTQSPSSLSASVGDRVTITCRASQGIYNSIAWYQQKPGKAPKLLLYSTSTLLSGVPSRFSGSGSGTDYTLTITNLQPEDFATYYCQQYFVTPETFGQGTKLEIKR
B1: the A450 was 0.251 A450 and 0.263 A450.
